Test results from patent publication US20210130420A1, “RECOMBINANT BINDING PROTEINS TARGETING HER2 AND SERUM ALBUMIN, AND THEIR USES” (Molecular Partners AG, priority 2016, published 2021).

Tests used:
MAPK1 and MAPK3 = assay: Phospho-proteome mass spectrometry; format: cell-based; details: 100 nM, 18 hours
Excerpt: Protein #21 was expressed and purified as described in Example 1. […] Cells were then subjected to a phospho-proteome mass-spectrometry analysis as described by Britton, D., et al. (Britton, D., Zen, Y., Quaglia, A., Selzer, S., Mitra, VI., Lössner, C., Jung, S., Bohm, G., Schmid, P., Prefot, P., Hoehle, C., Koncarevic, S., Gee, J., Nicholson, R., Ward, M., Castellano, L., Stebbing, J., Zucht, H. D., Sarker, D., Heaton, N., and Pike, I., 2014. PLOS One 9 (3), e90948). […] At other phosphorylation sites, phosphorylation is increased (772).

[1] = target: extracellular domains of EGFR (Homo sapiens, UniProt P00533); assay: Surface plasmon resonance interaction with EGFR; format: binding
RAF = assay: Phospho-proteome mass spectrometry of BT474 cells; format: cell-based, human; details: 100 nM, 18 hours
Excerpt: (§1) Protein #21 was expressed and purified as described in Example 1. […] Cells were then subjected to a phospho-proteome mass-spectrometry analysis as described by Britton, D., et al. (Britton, D., Zen, Y., Quaglia, A., Selzer, S., Mitra, VI., Lössner, C., Jung, S., Bohm, G., Schmid, P., Prefot, P., Hoehle, C., Koncarevic, S., Gee, J., Nicholson, R., Ward, M., Castellano, L., Stebbing, J., Zucht, H. D., Sarker, D., Heaton, N., and Pike, I., 2014. PLOS One 9 (3), e90948).

RPS6KB1/S6 Kinase = assay: Phospho-proteome mass spectrometry of BT474 cells; format: cell-based, human; details: 100 nM, 18 hours
Excerpt: as §1

mTOR = assay: Phospho-proteome mass spectrometry of BT474 cells; format: cell-based, human; details: 100 nM, 18 hours
Excerpt: as §1

AKT [2] = assay: Phospho-proteome mass spectrometry of BT474 cells; format: cell-based, human; details: 100 nM, 18 hours
Excerpt: as §1

BT474 cells = assay: BT474 cell proliferation, BrdU-labeling; format: cell-based, human; details: cellular assays of Example 6 and screening
Protocol: Protein #21-His and Protein #23-His, were expressed and purified as described in Example 1. Effects of the recombinant binding proteins on BT474 cell proliferation were determined by measuring DNA synthesis using BrdU-labeling (BrdU, Cell Proliferation ELISA, Roche). Briefly, 10000 BT474 cells were seeded per well in a 96 well plate in 100 ul complete medium and incubated for 24 hours. Recombinant binding proteins or controls were added for an additional 72 hours. BrdU for cell labeling was added for the last 24 hours. Labeled (proliferating) cells were detected according to the manufactures protocol. The data were analyzed using the GraphPad prism software, plotting log [c] on the x-axis against OD450-602 nm on the y-axis. Data were fitted using a non-linear regression fit (log(antagonist) vs. response—Variable slope (four parameters)) deriving IC50 values.
Protein #21 and Protein #21-His were expressed and purified as described in Example 1. Standard BrdU cell proliferation assays were performed, well-known to the person skilled in the art. Briefly, effects on cell proliferation of Protein #21-His, other compounds, or Protein #21-His in combination with other compounds, were determined by measuring DNA synthesis using BrdU-labeling (BrdU, Cell Proliferation ELISA, Roche). Briefly, 10000 cells were seeded per well in a 96 well plate in 100 μl complete medium and incubated for 24 hours. Protein #21-His and/or compounds were added for an additional 72 hours. BrdU for cell labeling was added for the last 24 hours. Labeled (proliferating) cells were detected according to the manufactures protocol. The data were analyzed using the Graph Pad prism software (log [c] vs. OD450-602 nm plot). Data were fitted using a non-linear regression fit (log(antagonist) vs. response—variable slope (four parameters)).

Foxo3a protein = assay: Cellular levels of Foxo3a protein in NCI-N87 cells; format: cell-based; details: compared to an exposure to PBS only
Excerpt: as §1
It is known to the practitioner in the art, that Akt1 phosphorylates Foxo3a, resulting in the degradation of Foxo3a and promotion of cell survival. Inhibition of Act phosphorylation leads to stabilization of Foxo3a and thus increase in Foxo3a levels. At increased levels Foxo3a can translocate to the nucleus and induce apoptosis.

AKT [3] = assay: Phospho-site specific ELISA, BT474 cells; format: cell-based, human; details: 100 nM, 18 hours

interaction with extracellular domains of EGFR [1]: does not interact
B1: Protein #21: SEQ ID NO: 21; HER2 binding domains (SEQ ID NOs: 16, 17) flanked by two serum albumin binding domains (SEQ ID NO: 14), SEQ ID NO: 9 linkers (protein)
chain: GSDLGKKLLEAARAGQDDEVRELLKAGADVNAKDYFSHTPLHLAARNGHLKIVEVLLKAGADVNAKDFAGKTPLHLAANEGHLEIVEVLLKAGADVNAQDIFGKTPADIAADAGHEDIAEVLQKAAGSPTPTPTTPTPTPTTPTPTPTGSDLGIKLLFAAAKGQDDEVRELLKAGADVNAKDFQGVTPLHIAAQSGHLEIVEVLLKAGADVNAKDVTGDTPLHLAAQHGHLEIVEVLLKAGADVNAQDERGWTPADLAADWGHEDIAEVLQKAAGSPTPTPTTPTPTPTTPTPTPTGSDLGKKLLEAARAGQDDEVRELLKAGADVNAKDEYGLTPLYLATAHGHLEIVEVLLKAGADVNAVDAIGFTPLHLAAFIGHLEIAEVLLKAGADVNAQDKFGKTPADIAAGAGNEDIAEVLQKAAGSPTPTPTTPTPTPTTPTPTPTGSDLGKKLLEAARAGQDDEVRELLKAGADVNAKDYFSHTPLHLAARNGHLKIVEVLLKAGADVNAKDFAGKTPLHLAANEGHLEIVEVLLKAGADVNAQDIFGKTPADIAADAGHEDIAEVLQKAA
modifications: Protein comprising four designed ankyrin repeat domains
phosphorylated peptides that map to MAPK1 and MAPK3 (MAPK1 and MAPK3): considerably downregulated | RAF S642 phosphorylation (RAF): 0.81 fold change to PBS | RAF T631/T638/T640/T641/S642 phosphorylation (RAF): 0.48 fold change to PBS | RPS6KB1/S6Kinase S441/T444/S447 phosphorylation (RPS6KB1/S6 Kinase): 0.63 fold change to PBS | RPS6KB1/S6Kinase T444/S447 phosphorylation (RPS6KB1/S6 Kinase): 0.92 fold change to PBS | mTOR S2448/S2454 phosphorylation (mTOR): 0.79 fold change to PBS | AKT S124 phosphorylation (AKT [2]): 0.99 fold change to PBS | AKT S129 phosphorylation (AKT [2]): 0.93 fold change to PBS | cellular potency (BT474 cells): high cellular potency | increase of cellular levels of Foxo3a protein (Foxo3a protein): 2.8 fold | AKT S473 phosphorylation (AKT [3]): 0.16 fold change to PBS
